The experiment deals with FLAG-Mfn2 (UniProt O95140). Kind of experiment: co-IP.
UniProt O95140, sequence (O95140 whole entry): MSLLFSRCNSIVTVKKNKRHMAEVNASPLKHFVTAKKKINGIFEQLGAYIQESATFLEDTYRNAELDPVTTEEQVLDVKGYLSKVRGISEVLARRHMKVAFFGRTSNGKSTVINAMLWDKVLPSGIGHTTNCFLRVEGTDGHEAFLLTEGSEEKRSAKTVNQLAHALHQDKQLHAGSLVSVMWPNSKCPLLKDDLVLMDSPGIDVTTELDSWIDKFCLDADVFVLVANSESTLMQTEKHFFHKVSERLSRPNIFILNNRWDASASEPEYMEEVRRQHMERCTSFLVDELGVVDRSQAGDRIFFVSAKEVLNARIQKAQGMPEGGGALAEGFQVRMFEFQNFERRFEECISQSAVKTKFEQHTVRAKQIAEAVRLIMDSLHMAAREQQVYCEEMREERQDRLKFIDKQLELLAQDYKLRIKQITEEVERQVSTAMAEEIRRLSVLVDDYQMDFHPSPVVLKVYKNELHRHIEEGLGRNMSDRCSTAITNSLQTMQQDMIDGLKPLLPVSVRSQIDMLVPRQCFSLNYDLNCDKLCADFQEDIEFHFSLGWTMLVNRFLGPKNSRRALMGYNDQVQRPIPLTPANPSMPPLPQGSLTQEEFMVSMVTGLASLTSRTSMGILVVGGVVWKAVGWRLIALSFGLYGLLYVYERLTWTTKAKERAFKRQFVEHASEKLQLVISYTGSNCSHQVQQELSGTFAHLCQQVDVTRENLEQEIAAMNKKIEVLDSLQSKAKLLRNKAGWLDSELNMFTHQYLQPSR

Substance GFP-Bcl-xL/Bax H5 returned a percent of GFP-Bcl-xL/Bax H5 bound to FLAG-Mfn2 of 3%.

The record behind these values is article PMC2970747.
